Results as given in US20100322950A1.

Target: CD44 receptors on SMMC-7721-SC2 hepatocellular carcinoma cells (human) (UniProt P16070)
Assay: cell-based or functional assay

Chain of CD44 receptors on SMMC-7721-SC2 hepatocellular carcinoma cells (human) (P16070 21-742): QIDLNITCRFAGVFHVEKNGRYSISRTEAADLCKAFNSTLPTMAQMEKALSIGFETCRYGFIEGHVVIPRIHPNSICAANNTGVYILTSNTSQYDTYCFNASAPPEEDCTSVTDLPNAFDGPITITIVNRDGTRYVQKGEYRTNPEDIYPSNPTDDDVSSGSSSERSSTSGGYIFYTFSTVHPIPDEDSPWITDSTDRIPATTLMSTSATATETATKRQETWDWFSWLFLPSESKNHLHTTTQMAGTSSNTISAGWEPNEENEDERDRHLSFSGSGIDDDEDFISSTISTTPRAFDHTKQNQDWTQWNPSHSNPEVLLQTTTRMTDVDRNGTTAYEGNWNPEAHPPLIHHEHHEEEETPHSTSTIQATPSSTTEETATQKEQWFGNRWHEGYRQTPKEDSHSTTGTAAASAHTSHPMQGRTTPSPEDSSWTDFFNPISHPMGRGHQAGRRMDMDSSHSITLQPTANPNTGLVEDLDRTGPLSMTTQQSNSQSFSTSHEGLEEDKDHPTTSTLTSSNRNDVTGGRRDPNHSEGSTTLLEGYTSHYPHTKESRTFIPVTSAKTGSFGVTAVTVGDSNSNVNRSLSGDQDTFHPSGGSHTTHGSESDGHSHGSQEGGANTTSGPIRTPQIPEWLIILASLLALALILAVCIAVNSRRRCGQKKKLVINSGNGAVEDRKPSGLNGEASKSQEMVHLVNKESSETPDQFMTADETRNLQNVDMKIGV

Substance “OPN-5 kD expressed from the pDest-490 vector with C-terminal 1xFLAG tag (from UniProt P10451 167-210) (ligand)” has a cellular invasion of SMMC-7721-SC2 cells through Matrigel, 36 hours greater than 2 fold.
